Molecular target: microtubules (polymerised α/β-tubulin) (UniProt Q6B856)
Sequence of UniProt Q6B856 (Q6B856 whole entry, looked up): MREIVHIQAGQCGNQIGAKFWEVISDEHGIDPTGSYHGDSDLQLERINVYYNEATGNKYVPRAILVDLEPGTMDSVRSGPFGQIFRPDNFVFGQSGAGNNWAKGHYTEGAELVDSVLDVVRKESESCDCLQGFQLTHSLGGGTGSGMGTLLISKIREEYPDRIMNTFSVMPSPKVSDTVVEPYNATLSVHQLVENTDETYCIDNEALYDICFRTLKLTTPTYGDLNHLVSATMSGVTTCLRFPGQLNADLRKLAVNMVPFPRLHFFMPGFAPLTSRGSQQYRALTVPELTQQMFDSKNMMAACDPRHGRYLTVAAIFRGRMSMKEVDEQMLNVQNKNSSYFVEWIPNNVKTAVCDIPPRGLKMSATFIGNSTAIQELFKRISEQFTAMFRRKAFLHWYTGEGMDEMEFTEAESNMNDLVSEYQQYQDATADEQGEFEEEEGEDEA

## human CEN subcomplex with wild-type Borealin (CEN-Borealin^wt) (from UniProt Q9NQS7 1-58; O15392 1-142; Q53HL2 1-280)
  width of bundles of GMpCpp-stabilized rhodamine-labeled MTs (100 nM) after 2 min with 4 μM CEN, TIRF microscopy (single GMpCpp MTs measure 0.34 μm): 0.46 μm
